These results are taken from the supplement of paper PMC9112550, “Optimization of the antimicrobial peptide Bac7 by deep mutational scanning” (BMC Biology, 2022).
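Also: peptides expressed intracellularly from a pBAD plasmid library in pooled LB shake-flask culture, induced with 0.3% L-arabinose, DNA abundance read by NGS, three biological replicates, DESeq2 with apeglm shrinkage.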

This data set relates to Escherichia coli TOP10. As to the kind of experiment: shrunken log2 fold change of peptide-encoding DNA abundance (4.5 h post-induction vs induction); higher = less antimicrobial activity (less host growth inhibition). Particulars: time post-induction: 4.5 h; library: site-saturation at positions 5, 18, 19, 20.
As to RRIRTRPPRLPRPRPRPVQSPRP, the “shrunken log2 fold change” value was -0.00991.
As for RRIRPRPPRLPRPRPRPWGEPRP, the figure is 0.113.
For RRIRHRPPRLPRPRPRPTIHPRP the value was -0.552.
As for RRIRGRPPRLPRPRPRPVMTPRP, the figure is 1.8; as for RRIRLRPPRLPRPRPRPRNIPRP, -0.424.
For the sequence RRIRRRPPRLPRPRPRPPFEPRP, the “shrunken log2 fold change” value worked out at 0.61.
Turning to RRIRARPPRLPRPRPRPWGLPRP, the “shrunken log2 fold change” value was 0.617.
Take RRIRPRPPRLPRPRPRPQGTPRP: the “shrunken log2 fold change” value came to 0.306.
RRIRGRPPRLPRPRPRPYTGPRP: the “shrunken log2 fold change” value was -0.707.
With RRIRWRPPRLPRPRPRPGMVPRP, the “shrunken log2 fold change” value was 0.628.
On to RRIRDRPPRLPRPRPRPLDEPRP, for which the “shrunken log2 fold change” value worked out at 0.034.
Consider RRIRMRPPRLPRPRPRPDIDPRP, for which the “shrunken log2 fold change” value amounted to 0.467.
For RRIRPRPPRLPRPRPRPMEMPRP the value was -0.0174; for RRIRMRPPRLPRPRPRPCTDPRP, -0.132; for RRIRHRPPRLPRPRPRPQESPRP, 0.00355.
RRIRPRPPRLPRPRPRPKGYPRP: the “shrunken log2 fold change” value is -0.13.
With RRIRRRPPRLPRPRPRPICAPRP, the “shrunken log2 fold change” value is 0.127.
As for RRIRQRPPRLPRPRPRPVYEPRP, the figure is -0.0143; as for RRIRQRPPRLPRPRPRPTYDPRP, -0.338; as for RRIRDRPPRLPRPRPRPNDLPRP, 0.124.
With RRIRIRPPRLPRPRPRPQARPRP, the “shrunken log2 fold change” value is -0.115.
Take RRIRIRPPRLPRPRPRPVELPRP: the “shrunken log2 fold change” value is -0.0129.
For RRIRRRPPRLPRPRPRPQAAPRP the value was 0.0105; for RRIRWRPPRLPRPRPRPYMVPRP, -0.844.
For RRIRKRPPRLPRPRPRPQSSPRP the value was -0.0228; for RRIRLRPPRLPRPRPRPRADPRP, 2.32.
For RRIRFRPPRLPRPRPRPNKYPRP the value was -0.684; for RRIRSRPPRLPRPRPRPLMMPRP, -0.0355; for RRIRYRPPRLPRPRPRPCVEPRP, -0.0115.
RRIRRRPPRLPRPRPRPFGRPRP: the “shrunken log2 fold change” value was 0.114.
With RRIRSRPPRLPRPRPRPWNPPRP, the “shrunken log2 fold change” value is -0.00281.
For RRIRCRPPRLPRPRPRPRWYPRP the value was -0.134.
For the sequence RRIRMRPPRLPRPRPRPVHDPRP, the “shrunken log2 fold change” value was determined as 0.0188.
For RRIRRRPPRLPRPRPRPTCPPRP, the “shrunken log2 fold change” value was found to be 0.415.
Turning to RRIRSRPPRLPRPRPRPETIPRP, the “shrunken log2 fold change” value turned out to be 0.148.
As for RRIRVRPPRLPRPRPRPDVTPRP, the figure is -0.0394; as for RRIRRRPPRLPRPRPRPMIKPRP, 0.0444; as for RRIRSRPPRLPRPRPRPFGEPRP, -0.066.
For RRIRERPPRLPRPRPRPDWNPRP, the “shrunken log2 fold change” value is -0.631.
As for RRIRWRPPRLPRPRPRPPMEPRP, the “shrunken log2 fold change” value was -0.131.
For RRIRARPPRLPRPRPRPRCDPRP the value was 0.324; for RRIRARPPRLPRPRPRPGKNPRP, 0.124.
As for RRIRTRPPRLPRPRPRPHFIPRP, the figure is -0.321; as for RRIRDRPPRLPRPRPRPYCDPRP, -0.181.
For RRIRTRPPRLPRPRPRPYDFPRP the value was -0.385; for RRIRGRPPRLPRPRPRPPICPRP, 0.155.
For the sequence RRIRDRPPRLPRPRPRPIAHPRP, the “shrunken log2 fold change” value stood at 0.41.
As for RRIRERPPRLPRPRPRPNVLPRP, the figure is -0.0106; as for RRIRKRPPRLPRPRPRPRAGPRP, 0.48.
On to RRIRGRPPRLPRPRPRPKFFPRP, for which the “shrunken log2 fold change” value stood at 0.36.
As for RRIRIRPPRLPRPRPRPKHCPRP, the figure is -0.405.
As for RRIRGRPPRLPRPRPRPDTTPRP, the figure is 0.903; as for RRIRDRPPRLPRPRPRPVNLPRP, 0.0119; as for RRIRGRPPRLPRPRPRPKNVPRP, 0.0302.
RRIRWRPPRLPRPRPRPSSPPRP: the “shrunken log2 fold change” value was -0.0889.
As for RRIRQRPPRLPRPRPRPDCIPRP, the “shrunken log2 fold change” value was -0.0167.
As for RRIRWRPPRLPRPRPRPMVMPRP, the figure is -0.0614; as for RRIRQRPPRLPRPRPRPRYNPRP, -0.527; as for RRIRSRPPRLPRPRPRPGTPPRP, 0.0374.
With RRIRERPPRLPRPRPRPICYPRP, the “shrunken log2 fold change” value was -0.4.
As for RRIRIRPPRLPRPRPRPQYDPRP, the figure is -0.043; as for RRIRHRPPRLPRPRPRPIVQPRP, -0.115; as for RRIRPRPPRLPRPRPRPSMIPRP, -0.547.
As for RRIRGRPPRLPRPRPRPRHKPRP, the “shrunken log2 fold change” value turned out to be 0.149.
With RRIRCRPPRLPRPRPRPWKLPRP, the “shrunken log2 fold change” value was -0.269.
As to RRIRKRPPRLPRPRPRPVDMPRP, the “shrunken log2 fold change” value was -0.122.
As for RRIRKRPPRLPRPRPRPWILPRP, the figure is -0.14; as for RRIRARPPRLPRPRPRPREKPRP, 0.383.
As for RRIRLRPPRLPRPRPRPADMPRP, the figure is -0.445; as for RRIRERPPRLPRPRPRPQEEPRP, -0.000946.
As to RRIRSRPPRLPRPRPRPMRTPRP, the “shrunken log2 fold change” value was 0.654.
For RRIRPRPPRLPRPRPRPEIQPRP the value was 0.07; for RRIRARPPRLPRPRPRPQNHPRP, -0.446.
As for RRIRQRPPRLPRPRPRPWIMPRP, the figure is -0.141; as for RRIRERPPRLPRPRPRPFLYPRP, -0.761; as for RRIRHRPPRLPRPRPRPQLAPRP, 0.0733.
As for RRIRQRPPRLPRPRPRPRHHPRP, the “shrunken log2 fold change” value amounted to 0.0815.
For RRIRARPPRLPRPRPRPETSPRP the value was 0.912; for RRIRARPPRLPRPRPRPTHIPRP, 0.36; for RRIRLRPPRLPRPRPRPSLTPRP, -0.0866.
Turning to RRIRGRPPRLPRPRPRPMGRPRP, the “shrunken log2 fold change” value is 0.28.
Take RRIRLRPPRLPRPRPRPTSCPRP: the “shrunken log2 fold change” value turned out to be 0.0575.
As for RRIRWRPPRLPRPRPRPQARPRP, the figure is 0.19; as for RRIRVRPPRLPRPRPRPQEKPRP, 0.0369.
On to RRIRCRPPRLPRPRPRPWWNPRP, for which the “shrunken log2 fold change” value is -0.752.
On to RRIRARPPRLPRPRPRPNFQPRP, for which the “shrunken log2 fold change” value was -0.0343.
As for RRIRIRPPRLPRPRPRPFEGPRP, the figure is -0.221.
As for RRIRCRPPRLPRPRPRPGGQPRP, the figure is -0.218; as for RRIRKRPPRLPRPRPRPMYPPRP, 0.00349; as for RRIRPRPPRLPRPRPRPREIPRP, 0.44.
RRIRDRPPRLPRPRPRPYKWPRP: the “shrunken log2 fold change” value was -0.595.
For RRIRHRPPRLPRPRPRPFGFPRP the value was -0.0586; for RRIRIRPPRLPRPRPRPLLLPRP, -0.597.
As for RRIRDRPPRLPRPRPRPYRIPRP, the figure is 0.0295; as for RRIRWRPPRLPRPRPRPQAIPRP, 0.204; as for RRIRRRPPRLPRPRPRPSCKPRP, -0.398.
As for RRIRMRPPRLPRPRPRPPRHPRP, the “shrunken log2 fold change” value was 0.955.
As for RRIRGRPPRLPRPRPRPEWYPRP, the figure is 0.243; as for RRIRCRPPRLPRPRPRPTNWPRP, -0.0072.
For RRIRPRPPRLPRPRPRPGFDPRP the value was 0.131; for RRIRSRPPRLPRPRPRPGTSPRP, -0.167; for RRIRGRPPRLPRPRPRPERLPRP, 0.586.
For RRIRGRPPRLPRPRPRPKLCPRP, the “shrunken log2 fold change” value is 0.75.
As for RRIRTRPPRLPRPRPRPTVTPRP, the figure is 0.0797; as for RRIRDRPPRLPRPRPRPLKYPRP, -0.529.
For RRIRLRPPRLPRPRPRPFCNPRP the value was -0.245.
Turning to RRIRFRPPRLPRPRPRPDCLPRP, the “shrunken log2 fold change” value was -0.0266.
For RRIRNRPPRLPRPRPRPFYTPRP the value was -1.29; for RRIRDRPPRLPRPRPRPDTEPRP, 0.0738.
For RRIRWRPPRLPRPRPRPNECPRP the value was -0.437; for RRIRRRPPRLPRPRPRPNCGPRP, 0.315.
For RRIRDRPPRLPRPRPRPMLKPRP the value was 0.111; for RRIRCRPPRLPRPRPRPTDRPRP, 0.15; for RRIRNRPPRLPRPRPRPTKSPRP, 0.141.
On to RRIRSRPPRLPRPRPRPWVKPRP, for which the “shrunken log2 fold change” value came out at 0.194.
For the sequence RRIRFRPPRLPRPRPRPLVMPRP, the “shrunken log2 fold change” value was -0.335.
For RRIRKRPPRLPRPRPRPLHPPRP the value was 0.158; for RRIRPRPPRLPRPRPRPHSWPRP, 0.069.
For RRIRDRPPRLPRPRPRPNFHPRP the value was -0.0585; for RRIRDRPPRLPRPRPRPVKEPRP, -0.0586.
For RRIRMRPPRLPRPRPRPDLNPRP the value was 0.178; for RRIRERPPRLPRPRPRPKFLPRP, -0.219.
For the sequence RRIRWRPPRLPRPRPRPQWFPRP, the “shrunken log2 fold change” value was -0.27.
As for RRIRFRPPRLPRPRPRPTPFPRP, the figure is 0.266; as for RRIRNRPPRLPRPRPRPAQKPRP, 0.918.
